Results reported in article PMC12090729.
Where two headings read alike, the source gives them in different places.

Tests used:
[1] = VSVpp infection, BFP+ cells, HEK293T without TMPRSS2; conditions: glycan lost; control: WT hACE2
[2] = confocal immunofluorescence, HeLa cells; conditions: glycan lost; control: WT hACE2
[3] = flow cytometry, surface/total MFI ratio, HeLa; conditions: glycan lost; control: WT hACE2
[4] = qRT-PCR of viral N RNA, transfected HEK293T; conditions: glycan lost; control: WT hACE2
[5] = anti-ACE2 western blot, HEK293T lysates; conditions: glycan lost; control: WT hACE2
[6] = glycan lost
[7] = syncytia formation, GFP+ area, co-transfected HEK293T; conditions: glycan lost; control: WT hACE2

hACE2 (angiotensin-converting enzyme 2): N322A
other: viral entry receptor function [1]: increases | localisation_or_trafficking [2]: no change | localisation_or_trafficking [3]: no change | other: susceptibility to genuine virus infection [4]: decreases | expression_or_secretion [5]: no change | other: Camostat sensitivity of S-mediated entry [6]: decreases | other: susceptibility to genuine virus infection [6]: increases | other: viral entry receptor function, fold_change [6]: increases | other: viral entry receptor function ([6]; control: WT hACE2): no change

hACE2 (angiotensin-converting enzyme 2): N690A
other: viral entry receptor function [1]: increases | localisation_or_trafficking [2]: no change | localisation_or_trafficking [3]: no change | other: susceptibility to genuine virus infection [4]: no change | other: susceptibility to genuine virus infection, fold_change [4]: no change | expression_or_secretion [5]: no change | other: viral entry receptor function, fold_change [6]: increases

hACE2 (angiotensin-converting enzyme 2): N53A
localisation_or_trafficking [2]: no change | localisation_or_trafficking [3]: no change | other: cell-cell fusion [7]: no change | expression_or_secretion [5]: no change | other: cell-cell fusion [6]: decreases | other: viral entry receptor function, fold_change [6]: no change

hACE2 (angiotensin-converting enzyme 2): N432A
localisation_or_trafficking [2]: no change | localisation_or_trafficking [3]: no change | expression_or_secretion [5]: no change | other: viral entry receptor function, fold_change [6]: no change

hACE2 (angiotensin-converting enzyme 2): N103A
localisation_or_trafficking [2]: no change | localisation_or_trafficking [3]: no change | expression_or_secretion [5]: no change | other: viral entry receptor function, fold_change [6]: no change

hACE2 (angiotensin-converting enzyme 2): N90A
localisation_or_trafficking [2]: no change | localisation_or_trafficking [3]: no change | expression_or_secretion [5]: no change | other: susceptibility to genuine virus infection [6]: no change | other: susceptibility to genuine virus infection, fold_change [6]: increases | other: viral entry receptor function, fold_change [6]: no change

hACE2 (angiotensin-converting enzyme 2): T92I
localisation_or_trafficking [2]: no change | localisation_or_trafficking [3]: no change | expression_or_secretion [5]: no change

hACE2 (angiotensin-converting enzyme 2): N546A
localisation_or_trafficking [2]: no change | localisation_or_trafficking [3]: no change | expression_or_secretion [5]: no change | other: viral entry receptor function, fold_change [6]: no change
